T1: MBP-EFD (Arabidopsis thaliana, UniProt Q9M389 1-323)
T1 sequence: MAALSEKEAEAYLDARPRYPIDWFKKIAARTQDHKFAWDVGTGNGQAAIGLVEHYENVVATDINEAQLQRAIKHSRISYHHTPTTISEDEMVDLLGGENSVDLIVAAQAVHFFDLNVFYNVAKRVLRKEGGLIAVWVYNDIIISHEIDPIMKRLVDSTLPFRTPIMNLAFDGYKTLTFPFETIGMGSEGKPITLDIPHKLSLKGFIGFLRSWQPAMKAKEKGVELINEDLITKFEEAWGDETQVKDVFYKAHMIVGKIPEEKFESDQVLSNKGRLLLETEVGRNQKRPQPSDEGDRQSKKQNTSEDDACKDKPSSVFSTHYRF

T2: MBP-EFD (1-260 aa) (Arabidopsis thaliana, UniProt Q9M389 1-260)
T2 sequence: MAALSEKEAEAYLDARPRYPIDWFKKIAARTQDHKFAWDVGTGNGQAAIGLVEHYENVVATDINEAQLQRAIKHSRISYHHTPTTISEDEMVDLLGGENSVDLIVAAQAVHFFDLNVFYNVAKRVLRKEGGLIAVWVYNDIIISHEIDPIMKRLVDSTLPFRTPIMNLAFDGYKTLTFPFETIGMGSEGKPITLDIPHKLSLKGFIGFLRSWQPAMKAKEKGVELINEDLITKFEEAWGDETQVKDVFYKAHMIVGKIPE


Assays:
MBP-EFD = molecular target: T1, MBP-EFD; assay: EMSA
MBP-EFD (1-260 aa) = molecular target: T2, MBP-EFD (1-260 aa); assay: EMSA

| Binder | binding result (MBP-EFD) | binding result (MBP-EFD (1-260 aa)) |
| --- | --- | --- |
| HB21 probe, unmethylated (HB21+1410) (dsDNA) DNA 1: ATCCTCTGTGACCATTGAAGCCAATCATACGACACCGTTTTTTGGAGATTACGACATCGGATTTGACGGTGAGGCTGACGAG DNA 2: CTCGTCAGCCTCACCGTCAAATCCGATGTCGTAATCTCCAAAAAACGGTGTCGTATGATTGGCTTCAATGGTCACAGAGGAT | binds | binds |
| HB21 probe, methylated (HB21+1410) (dsDNA, 5-methylcytosine, positions not given) DNA 1: ATCCTCTGTGACCATTGAAGCCAATCATACGACACCGTTTTTTGGAGATTACGACATCGGATTTGACGGTGAGGCTGACGAG DNA 2: CTCGTCAGCCTCACCGTCAAATCCGATGTCGTAATCTCCAAAAAACGGTGTCGTATGATTGGCTTCAATGGTCACAGAGGAT |  | binds |
